Consider 7 molecules from patent EP4707300A1 (Beijing Wisdomab Biotechnology Co., Ltd, dated 2026).

The term Kd denotes the constant that tells how readily two partners part at equilibrium. As a reminder, the koff is the first-order rate constant of dissociation. Broadly, the kon is a measure of how fast the partners come together.

In assay [1] the target is human IL-15 (hIL-15+hIL-15Rα complex), tag on IL-15Rα not stated (human (homo sapiens)) (UniProt P40933). As to the kind of experiment: cell-based or functional assay.
In assay [2] the target is human IL-15 (hIL-15+hIL-15Rα-His complex) (human (homo sapiens)) (UniProt P40933). As to the kind of experiment: cell-based or functional assay.
The target in assay [3] is cynomolgus monkey IL-15 (mfIL-15+mfIL-15Rα complex), tag on IL-15Rα not stated (cynomolgus monkey (Macaca fascicularis)) (UniProt P40221). As to the kind of experiment: SPR (Biacore T200), as in Example 2.2. On the technique in general: In SPR one partner is held on a chip, and binding of the other changes the refractive index at the surface.
The target in assay [4] is human IL-15 (hIL-15+hIL-15Rα complex), tag on IL-15Rα not stated (human (homo sapiens)) (UniProt P40933). In words: SPR (Biacore T200), as in Example 2.2.
For assay [5] the target is unchanged. In words: SPR (Biacore T200), as in Example 2.2. This is another data set of the same source.
Assay [6] shares this target. As to the kind of experiment: SPR (Biacore T200), antibody captured by anti-human IgG Fc, complex as analyte, 1:1 model.
For assay [7], the target named is T1, human IL-15 (hIL-15+hIL-15Rα complex), tag on IL-15Rα not stated (human (homo sapiens), UniProt P40933 49-162; Q13261 31-128).
T1 construct: Co-expressed complex (superagonist) of human IL-15 and human IL-15Rα made in HEK293 cells; also called human IL-15 (IL-15+IL-15Rα complex); IL-15+IL-15Rα complex
In words: SPR (Biacore T200), as in Example 2.2.

The target in assay [8] is T1, human IL-15 (hIL-15+hIL-15Rα complex), …. In words: SPR (Biacore T200), as in Example 2.2. This is another data set of the same source.
Assay [9] has the same target. As to the kind of experiment: cell-based or functional assay.
Assay [10] has as its target human IL-15 (hIL-15+hIL-15Rα-His complex) (human (homo sapiens), UniProt P40933 49-162; Q13261 31-128). As to the kind of experiment: cell-based or functional assay.
Assay [11] addresses T1, human IL-15 (hIL-15+hIL-15Rα complex), …. As to the kind of experiment: SPR (Biacore T200), as in Example 2.2. The source holds these as a separate data set.
The target is the same in assay [12]. In words: SPR (Biacore T200), as in Example 2.2. The source holds these as a separate data set.
In assay [13] the target is T2, cynomolgus monkey IL-15 (mfIL-15+mfIL-15Rα complex), tag on IL-15Rα not stated (cynomolgus monkey (Macaca fascicularis), UniProt P40221 49-162; Q13261 31-128).
T2 construct: also called monkey IL-15+IL-15Rα superagonist
T2 chain 1: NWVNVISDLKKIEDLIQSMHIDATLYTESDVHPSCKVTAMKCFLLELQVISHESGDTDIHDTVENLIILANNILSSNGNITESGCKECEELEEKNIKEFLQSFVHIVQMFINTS
T2 chain 2: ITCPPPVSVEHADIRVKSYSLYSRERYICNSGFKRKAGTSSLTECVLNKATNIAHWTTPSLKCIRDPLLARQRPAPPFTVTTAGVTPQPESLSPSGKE
As to the kind of experiment: SPR (Biacore T200), as in Example 2.2.

For assay [14], the target named is T3, mouse IL-15 (mIL-15+mIL-15Rα-mFc1 complex) (mouse (Mus musculus), UniProt P48346 49-162).
T3 construct: also called mIL-15+mIL-15Rα-mFe1 complex
T3 sequence (P48346 49-162 limits assumed, chain 1 of 2): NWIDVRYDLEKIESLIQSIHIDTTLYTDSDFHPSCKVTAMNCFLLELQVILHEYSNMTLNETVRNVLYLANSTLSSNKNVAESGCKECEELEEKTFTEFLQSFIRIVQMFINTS
T3 sequence (chain, as listed by the source limits assumed, chain 2 of 2): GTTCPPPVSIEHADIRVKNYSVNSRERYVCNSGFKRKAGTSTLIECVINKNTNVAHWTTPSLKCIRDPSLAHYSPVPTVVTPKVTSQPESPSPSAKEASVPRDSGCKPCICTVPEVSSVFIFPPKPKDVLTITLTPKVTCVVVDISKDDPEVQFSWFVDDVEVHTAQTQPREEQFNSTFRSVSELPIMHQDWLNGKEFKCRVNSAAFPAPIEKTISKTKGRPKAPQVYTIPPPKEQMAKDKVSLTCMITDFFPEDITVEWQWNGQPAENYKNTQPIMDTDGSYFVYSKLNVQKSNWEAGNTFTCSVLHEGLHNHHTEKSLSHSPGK
As to the kind of experiment: ELISA, complex coated at 1 µg/mL, anti-human IgG-HRP detection.

Assay [15] concerns the target T1, human IL-15 (hIL-15+hIL-15Rα complex), …. In words: SPR (Biacore T200), antibody captured by anti-human IgG Fc, complex as analyte, 1:1 model.
Assay [16] concerns the target cynomolgus monkey IL-15 (mfIL-15+mfIL-15Rα-His complex) (cynomolgus monkey (Macaca fascicularis), UniProt P40221 49-162 (Chlorocebus aethiops entry)). In words: ELISA, complex coated at 1 µg/mL, anti-human IgG-HRP detection.

human IL-15 (hIL-15+hIL-15Rα-His complex), sequence (P40933 49-162 limits assumed, chain 1 of 2): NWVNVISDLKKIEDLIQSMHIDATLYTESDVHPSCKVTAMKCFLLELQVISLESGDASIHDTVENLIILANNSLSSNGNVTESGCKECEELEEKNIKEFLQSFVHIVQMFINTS
human IL-15 (hIL-15+hIL-15Rα-His complex), sequence (Q13261 other isoform, or with tags, fused parts or gaps limits assumed, chain 2 of 2): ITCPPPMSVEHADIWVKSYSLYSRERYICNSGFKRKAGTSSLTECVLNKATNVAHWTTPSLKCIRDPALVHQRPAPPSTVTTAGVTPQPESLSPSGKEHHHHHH

In assay [1], “anti-human IL-15 monoclonal antibody CALY-002” came in with an IC50(nM), inhibition of IL-15-induced SEAP secretion by HEK-Blue IL-2 cells of 3.23 nM. This molecule also showed an IC50(nM), inhibition of IL-15-driven proliferation of NK92 cells (Cell Titer-Glo) in [2] of 0.106 nM. For the same molecule, the Kd in assay [3] was 0.148 nM; in assay [4], 0.201 nM; in [5] it was 0.337 nM; in assay [6], 0.239 nM. In addition, the koff in [3] was 0.000188 s⁻¹; in assay [4], 0.000207 s⁻¹; in [5], 0.000235 s⁻¹; in [6], 0.000319 s⁻¹. The kon in assay [3] came to 1.27e+06 M⁻¹ s⁻¹; in assay [4], 1.03e+06 M⁻¹ s⁻¹; in assay [5] it was 697000 M⁻¹ s⁻¹; in [6], 1.34e+06 M⁻¹ s⁻¹.

B1: mouse anti-human IL-15 monoclonal antibody R6E11 (antibody, V domains shown)
VH: EVKLKESGPSLVQPSQSLSITCTVSGFSLTTYAVHWVRQSPGKGLEWLGVIWGAGSTDYNAAFMSRLSITKDNSKSQVFFKMNSLQADDTAIYFCAKNGAYYVMDYWGQGTSVTVSS
VL: EIVLTQSPAIMSASPGEKVTITCSASSSVSYMHWFQQRPGTSPKLWIYSTSNLASGVPARFSGSGSGTSYSLTISRMEAEDAATYYCQQRSSYPLTFGAGTKLEIK
notes: Mouse variable regions from a mouse immune phage library
In assay [7], B1 yielded a Kd of 0.689 nM, a koff of 0.000267 s⁻¹ and a kon of 387000 M⁻¹ s⁻¹. Moreover, in assay [8], the dissociation constant (Kd) worked out at 0.983 nM, the koff came out at 0.000399 s⁻¹ and the kon was 406000 M⁻¹ s⁻¹.

B2: anti-human IL-15 monoclonal antibody R1A3 (antibody, V domains shown)
VH: EVQLVQSGAEVKKPGESLKISCKVSGYFFTTYWIGWVRQMPGKGLEYMGIIYPGDSDTRYSPSFQGQVTISADKSISTAYLQWSSLKASDTAMYYCARGGHWNAFDFWGQGTLVTVSS
VL: EIVLTQSPGTLSLSPGERATLSCRASQSVSSSYLAWYQQKPGQAPRLLIYGASRRATGIPDRFSGSGSGTDFTLTISRLEPEDFAVYYCQQFDASQTFGQGTKLEISR
notes: Found from a fully human Fab phage library
For the molecule B2, the “IC50(nM), inhibition of IL-15-induced SEAP secretion by HEK-Blue IL-2 cells” value (shortened to “IC50(nM), inhibition … by HEK-Blue IL-2 cells”) in assay [9] came to 0.634 nM. Moreover, the “IC50(nM), inhibition of IL-15-driven proliferation of NK92 cells (Cell Titer-Glo)” value (“IC50(nM), inhibition … (Cell Titer-Glo)” below) in assay [10] was determined as 0.126 nM. The Kd came out at 0.352 nM in assay [11], 0.612 nM in [12], 0.722 nM in assay [13] and 0.381 nM in assay [15]. In addition, the koff in [11] is 0.000548 s⁻¹; in assay [12], 0.00038 s⁻¹; in assay [13], 0.000398 s⁻¹; in assay [15] it was 0.000537 s⁻¹. Further, the kon in assay [11] is 1.56e+06 M⁻¹ s⁻¹; in assay [12], 621000 M⁻¹ s⁻¹; in assay [13], 552000 M⁻¹ s⁻¹; in assay [15], 1.41e+06 M⁻¹ s⁻¹. Besides, the binding result in assay [14] is “no binding”.

B3: anti-human IL-15 monoclonal antibody AMG714 (antibody, V domains shown)
VH: EVQLVQSGAEVKKPGESLKISCKVSGYFFTTYWIGWVRQMPGKGLEYMGIIYPGDSDTRYSPSFQGQVTISADKSISTAYLQWSSLKASDTAMYYCARGGNWNCFDYWGQGTLVTVSS
VL: EIVLTQSPGTLSLSPGERATLSCRASQSVSSSYLAWYQQKPGQAPRLLIYGASRRATGIPDRFSGSGSGTDFTLTISRLEPEDFAVYYCQRYGSSHTFGQGTKLEISR
On to B3, for which, in assay [13], the Kd was 2.12 nM, the koff was found to be 0.00124 s⁻¹ and the kon is 583000 M⁻¹ s⁻¹.

B4: anti-human IL-15 monoclonal antibody R26H10 (antibody, V domains shown)
VH: QVTLKESGPVLVKPTETLTLTCTVSGFSLTTYAVHWIRQPPGKALEWLGVIWGAGSTDYNPSFMSRLTISKDTSKSQVVLTMTNMDPVDTATYYCAKNAAYYVMDYWGQGTTVTVSS
VL: EIVLTQSPGTLSLSPGERATLSCRASQSVIYSYLAWYQQKPGQAPRLLIYAASKLASGIPDRFSGSGSGTDFTLTISRLEPEDFAVYYCQQRASYPLTFGQGTKVEIK
notes: Humanized mutant of R6E11 with a fully human light chain; captured by anti-human IgG (Fc) in SPR and detected with anti-human IgG in ELISA
In the case of B4, the “IC50(nM), inhibition … by HEK-Blue IL-2 cells” value in [9] was 0.646 nM. Further, the “IC50(nM), inhibition … (Cell Titer-Glo)” value in [10] stood at 0.133 nM. Moreover, the figures for the Kd in assay [8], in assay [12] and in assay [13] were 1.22 nM, 1.13 nM and 99.9 nM, respectively. Also, the dissociation rate constant (koff) in [8] amounted to 0.000308 s⁻¹; in [12] it was 0.000236 s⁻¹; in assay [13], 0.021 s⁻¹. For the same molecule, the kon in assay [8] is 252000 M⁻¹ s⁻¹; in assay [12] it was 208000 M⁻¹ s⁻¹; in assay [13], 210000 M⁻¹ s⁻¹. The binding result was “binds” in assay [16] and “no binding” in assay [14].

B5: anti-human IL-15 monoclonal antibody R4G4VH+R22F11VK (antibody, V domains shown)
VH: EVQLVQSGAEVKKPGESLKISCKVSGYFFTTYWIGWVRQMPGKGLEYMGIIYPGDSDTRYSPSFQGQVTISADKSISTAYLQWSSLKASDTAMYYCARGGHWNAFDIWGQGTLVTVSS
VL: EIVLTQSPGTLSLSPGERATLSCRASQSVIGSYLAWYQQKPGQAPRLLIYSASKLASGIPDRFSGSGSGTDFTLTISRLEPEDFAVYYCQQHYSTPGTFGQGTKVEIK
notes: Mutant of R1A3; it was captured by anti-human IgG (Fc) in SPR and detected with anti-human IgG in ELISA, so a human Fc is implied; also called R4G4VH+R22FVK
For B5, the “IC50(nM), inhibition … by HEK-Blue IL-2 cells” value in [9] came to 0.312 nM. Moreover, the “IC50(nM), inhibition … (Cell Titer-Glo)” value in assay [10] was 0.109 nM. Besides, the Kd in assay [11] stood at 0.346 nM; in assay [12], 0.435 nM; in [13], 0.448 nM. Also, the koff in assay [11] amounted to 0.00029 s⁻¹; in assay [12], 0.000196 s⁻¹; in assay [13], 0.000172 s⁻¹. The kon in assay [11] came out at 838000 M⁻¹ s⁻¹; in [12], 450000 M⁻¹ s⁻¹; in assay [13], 384000 M⁻¹ s⁻¹. For the same molecule, the figures for the binding result in assay [16] and in [14] were “binds” and “no binding”, respectively.

B6: anti-human IL-15 monoclonal antibody R2H2VH+R22F11VK (antibody, V domains shown)
VH: EVQLVQSGAEVKKPGESLKISCKVSGYFFTTYWIGWVRQMPGKGLEYMGIIYPGDSDTRYSPSFQGQVTISADKSISTAYLQWSSLKASDTAMYYCARGGHWNSFDTWGQGTLVTVSS
VL: EIVLTQSPGTLSLSPGERATLSCRASQSVIGSYLAWYQQKPGQAPRLLIYSASKLASGIPDRFSGSGSGTDFTLTISRLEPEDFAVYYCQQHYSTPGTFGQGTKVEIK
notes: Mutant of R1A3; it was captured by anti-human IgG (Fc) in SPR and detected with anti-human IgG in ELISA, so a human Fc is implied; also called R2H2VH+R22FVK
For B6, the “IC50(nM), inhibition … by HEK-Blue IL-2 cells” value in assay [9] is 0.397 nM. Also, in assay [10], the “IC50(nM), inhibition … (Cell Titer-Glo)” value amounted to 0.119 nM. Also, the Kd in assay [11] came out at 0.379 nM; in [12], 0.57 nM; in [13], 0.463 nM. Also, the koff in assay [11] turned out to be 0.000299 s⁻¹; in assay [12], 0.000204 s⁻¹; in [13] it was 0.000171 s⁻¹. In addition, the values for the kon in [11], in [12] and in assay [13] were 791000 M⁻¹ s⁻¹, 357000 M⁻¹ s⁻¹ and 365000 M⁻¹ s⁻¹, respectively. Besides, the binding result is on record as “binds” in assay [16] and “no binding” in assay [14].
